The record followed here is PMC4192540, “Targeted In Vivo Inhibition of Specific Protein–Protein Interactions Using Recombinant Antibodies” (PLoS ONE, 2014).

What all share (conditions): partners not purified
Assay [1] deals with T1, ARABIDOPSIS … PHOSPHOTRANSFER PROTEIN 4, Gal4 activation domain fusion (Arabidopsis thaliana (Mouse-ear cress)., UniProt Q9LU15).
T1 construct: ARABIDOPSIS … PHOSPHOTRANSFER PROTEIN 4 (AHP4), A. thaliana; also called AHP4; source: yeast two-hybrid fusion (pGADT7-DEST, S. cerevisiae PJ69-4A)
Briefly: two-hybrid; recombinant antibodies as Gal4 DNA BD fusions (pGBKT7), AHP proteins as Gal4 AD fusions (pGADT7-DEST); S. cerevisiae PJ69-4A; growth after 3 days at 30°C on media lacking Leu, Trp and His or Ade; 1-5 mM 3-Amino-1,2,4-triazole for stringent selection.

For assay [2], the target named is T2, ARABIDOPSIS … PHOSPHOTRANSFER PROTEIN 5, Gal4 activation domain fusion (A. thaliana, UniProt Q8L9T7).
T2 construct: ARABIDOPSIS … PHOSPHOTRANSFER PROTEIN 5 (AHP5), A. thaliana; also called AHP5; source: yeast two-hybrid fusion (pGADT7-DEST, S. cerevisiae PJ69-4A)
The description is as above.

Assay [3] concerns the target T3, ARABIDOPSIS … PHOSPHOTRANSFER PROTEIN 3, Gal4 activation domain fusion (A. thaliana, UniProt Q9SAZ5).
T3 construct: ARABIDOPSIS … PHOSPHOTRANSFER PROTEIN 3 (AHP3), A. thaliana; also called AHP3; source: yeast two-hybrid fusion (pGADT7-DEST, S. cerevisiae PJ69-4A)
The description is as above.

The target in assay [4] is T4, ARABIDOPSIS … PHOSPHOTRANSFER PROTEIN 6, Gal4 activation domain fusion (Arabidopsis thaliana (Mouse-ear cress)., UniProt Q9SSC9).
T4 construct: ARABIDOPSIS … PHOSPHOTRANSFER PROTEIN 6 (AHP6), A. thaliana; also called AHP6; source: yeast two-hybrid fusion (pGADT7-DEST, S. cerevisiae PJ69-4A)
The description is as above.

Assay [5] addresses T5, ARABIDOPSIS … PHOSPHOTRANSFER PROTEIN 1, Gal4 activation domain fusion (Arabidopsis thaliana (Mouse-ear cress)., UniProt Q9ZNV9).
T5 construct: ARABIDOPSIS … PHOSPHOTRANSFER PROTEIN 1 (AHP1), A. thaliana; also called AHP1; source: yeast two-hybrid fusion (pGADT7-DEST, S. cerevisiae PJ69-4A)
Described as above.

The target in assay [6] is T6, ARABIDOPSIS … PHOSPHOTRANSFER PROTEIN 2, Gal4 activation domain fusion (A. thaliana, UniProt Q9ZNV8).
T6 construct: ARABIDOPSIS … PHOSPHOTRANSFER PROTEIN 2 (AHP2), A. thaliana; also called AHP2; source: yeast two-hybrid fusion (pGADT7-DEST, S. cerevisiae PJ69-4A)
The description is as above.

Another assay addresses T7, AHP3:cYFP (Arabidopsis thaliana (Mouse-ear cress)., UniProt Q9SAZ5).
T7 construct: ARABIDOPSIS … PHOSPHOTRANSFER PROTEIN 3 (AHP3), A. thaliana; source: A. thaliana Col-0 mesophyll protoplasts, transfected; not shown: C-terminal fragment of YFP (cYFP), C-terminal, kept
Description: split reporter (BiFC, NanoBiT); bimolecular fluorescent complementation with split YFP in A. thaliana Col-0 mesophyll protoplasts, 16 h at room temperature, confocal microscopy.

The target of assay [7] is T3, ARABIDOPSIS … PHOSPHOTRANSFER PROTEIN …. Description: two-hybrid; yeast three-hybrid: receiver domain as Gal4 BD fusion, AHP proteins as Gal4 AD fusions, scFv hB7A expressed ectopically from pY3HS or empty pY3HS; S. cerevisiae PJ69-4A; media lacking Leu, Trp, Ura and His or Ade, or with 1 mM 3-Amino-1,2,4-triazole.
Assay [8] has as its target T8, recombinant ARABIDOPSIS … PHOSPHOTRANSFER PROTEIN 3 with 6x-His-tag (Arabidopsis thaliana (Mouse-ear cress)., UniProt Q9SAZ5).
T8 construct: ARABIDOPSIS … PHOSPHOTRANSFER PROTEIN 3 (AHP3), A. thaliana; also called AHP3; AHP3 antigen; source: purified
Briefly: far-Western, overlay or dot blot; total protein extracts of bacterially expressed AHP proteins separated by SDS-PAGE and blotted on PVDF; periplasmic extract with the scFv diluted 1:2 in blocking buffer (5% skimmed milk, TBS, 0.1% Tween-20), 1 h; detected by anti-c-myc-tag antibody.

A further assay concerns the target T9, cYFP:CKI1 RD (Arabidopsis thaliana, UniProt O22267).
T9 construct: CYTOKININ INDEPENDENT … KINASE 1 (CKI1), A. thaliana, receiver domain; source: A. thaliana mesophyll protoplasts, co-transformed; not shown: C-terminal fragment of YFP (cYFP), N-terminal, kept
Briefly: split reporter (BiFC, NanoBiT); bimolecular fluorescent complementation with split YFP in A. thaliana Col-0 mesophyll protoplasts, 16 h at room temperature, confocal microscopy.

T7 sequence (Q9SAZ5 whole entry, the tested form may be a part): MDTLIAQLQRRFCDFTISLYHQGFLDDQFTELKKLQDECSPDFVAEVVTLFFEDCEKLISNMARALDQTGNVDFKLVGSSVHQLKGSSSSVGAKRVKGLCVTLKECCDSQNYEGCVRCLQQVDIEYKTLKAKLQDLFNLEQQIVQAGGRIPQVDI
T3 sequence (Q9SAZ5 whole entry, the tested form may be a part): as above
T9 sequence (O22267 whole entry, looked up, the tested form may be a part): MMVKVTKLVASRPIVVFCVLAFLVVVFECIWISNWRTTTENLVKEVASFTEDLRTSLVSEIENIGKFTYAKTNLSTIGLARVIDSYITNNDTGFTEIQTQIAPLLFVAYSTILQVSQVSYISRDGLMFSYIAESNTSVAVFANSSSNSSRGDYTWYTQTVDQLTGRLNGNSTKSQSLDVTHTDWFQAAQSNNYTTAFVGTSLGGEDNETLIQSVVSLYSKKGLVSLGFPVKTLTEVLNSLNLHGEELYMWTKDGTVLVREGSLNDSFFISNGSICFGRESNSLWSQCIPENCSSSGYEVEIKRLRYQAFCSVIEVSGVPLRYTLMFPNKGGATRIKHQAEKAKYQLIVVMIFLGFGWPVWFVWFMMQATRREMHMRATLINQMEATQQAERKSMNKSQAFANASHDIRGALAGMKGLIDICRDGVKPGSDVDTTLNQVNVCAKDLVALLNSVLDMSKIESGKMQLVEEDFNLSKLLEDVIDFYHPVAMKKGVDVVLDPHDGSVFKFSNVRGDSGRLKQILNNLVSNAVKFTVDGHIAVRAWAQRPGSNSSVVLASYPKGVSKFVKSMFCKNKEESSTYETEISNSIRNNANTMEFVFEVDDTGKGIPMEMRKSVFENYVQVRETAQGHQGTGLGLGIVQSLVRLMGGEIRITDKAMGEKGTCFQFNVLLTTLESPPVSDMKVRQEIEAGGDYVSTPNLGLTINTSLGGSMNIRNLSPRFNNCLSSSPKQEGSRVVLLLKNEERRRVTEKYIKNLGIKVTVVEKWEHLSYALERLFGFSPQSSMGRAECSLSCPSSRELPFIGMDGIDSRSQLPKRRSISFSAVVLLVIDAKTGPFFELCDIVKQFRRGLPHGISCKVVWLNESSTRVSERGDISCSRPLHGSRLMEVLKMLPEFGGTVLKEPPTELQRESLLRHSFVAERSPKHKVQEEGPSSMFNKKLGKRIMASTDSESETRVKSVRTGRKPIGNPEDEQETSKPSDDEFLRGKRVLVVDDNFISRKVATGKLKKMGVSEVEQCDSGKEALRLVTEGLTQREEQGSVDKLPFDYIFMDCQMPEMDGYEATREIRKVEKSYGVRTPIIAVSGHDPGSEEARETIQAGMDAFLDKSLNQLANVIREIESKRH
T1 sequence (Q9LU15 whole entry, the tested form may be a part): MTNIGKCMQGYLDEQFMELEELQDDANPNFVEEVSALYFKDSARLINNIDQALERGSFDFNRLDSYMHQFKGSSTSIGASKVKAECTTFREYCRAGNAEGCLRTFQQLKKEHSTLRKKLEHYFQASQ
T2 sequence (Q8L9T7 whole entry, the tested form may be a part): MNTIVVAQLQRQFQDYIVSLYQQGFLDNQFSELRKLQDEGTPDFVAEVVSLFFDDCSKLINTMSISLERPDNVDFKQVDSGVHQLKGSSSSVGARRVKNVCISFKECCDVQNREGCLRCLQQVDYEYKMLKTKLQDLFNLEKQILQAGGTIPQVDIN
T5 sequence (Q9ZNV9 whole entry, the tested form may be a part): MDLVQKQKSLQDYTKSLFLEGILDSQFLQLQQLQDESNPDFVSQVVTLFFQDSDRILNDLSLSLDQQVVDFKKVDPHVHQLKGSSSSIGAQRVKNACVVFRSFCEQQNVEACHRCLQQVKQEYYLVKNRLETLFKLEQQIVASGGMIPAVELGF
T6 sequence (Q9ZNV8 whole entry, the tested form may be a part): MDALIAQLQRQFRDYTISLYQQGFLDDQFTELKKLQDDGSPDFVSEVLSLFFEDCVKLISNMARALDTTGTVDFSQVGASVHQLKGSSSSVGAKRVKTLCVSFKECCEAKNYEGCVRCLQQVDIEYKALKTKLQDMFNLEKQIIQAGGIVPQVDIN
T4 sequence (Q9SSC9 whole entry, the tested form may be a part): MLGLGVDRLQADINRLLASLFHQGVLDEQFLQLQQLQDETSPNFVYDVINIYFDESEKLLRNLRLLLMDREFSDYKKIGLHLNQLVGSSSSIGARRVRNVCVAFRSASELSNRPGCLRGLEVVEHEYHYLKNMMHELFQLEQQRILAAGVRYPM
T8 sequence (Q9SAZ5 whole entry): as the sequence (Q9SAZ5 whole entry, the tested form may be a part) above

B1: scFv hB7A, Gal4 DNA binding domain fusion (scFv, V domains shown)
VH: EVQLLESGGGLVQPGGSLRLSCAASGFTFSFYRMSWVRQAPGKGLEWVSAISGSGGSTYYADSVKGRFTISRDNSKNTLYLQMNSLRAEDTAVYYCAKRVLTFDYWGQGTLVTVSS
VL: DIQMTQSPSSLSASVGDRVTITCRASQSIRKRLNWYQQKPGKAPKLLIYAASSLQSGVPSRFSGSGSGTDFTLTISSLQPEDFATYYCQQSYSTPPTFGQGTKVEIK
notes: selected from Human Single Fold scFv Library A+B; cloned between NcoI and NotI of pGBKT7; source: yeast two-hybrid fusion (pGBKT7, S. cerevisiae PJ69-4A)
B1: the binding result in assay [1] was “no binding”; in assay [2] it was “no binding”; in [3], “binds”; in [4] it was “no binding”; in assay [5], “no binding”; in [6], “no binding”.

B2: scFv-hB7A:nYFP (scFv, V domains shown)
VH: EVQLLESGGGLVQPGGSLRLSCAASGFTFSFYRMSWVRQAPGKGLEWVSAISGSGGSTYYADSVKGRFTISRDNSKNTLYLQMNSLRAEDTAVYYCAKRVLTFDYWGQGTLVTVSS
VL: DIQMTQSPSSLSASVGDRVTITCRASQSIRKRLNWYQQKPGKAPKLLIYAASSLQSGVPSRFSGSGSGTDFTLTISSLQPEDFATYYCQQSYSTPPTFGQGTKVEIK
notes: sub-cloned from pY3HS with BglII and EcoRI, so the StrepTag II of the cassette may be carried along (surmise); source: A. thaliana Col-0 mesophyll protoplasts, transfected; not shown: N-terminal fragment of YFP (nYFP), C-terminal, kept
On to B2, for which, in the assay with AHP3:cYFP, the binding result is “binds”.

B3: scFv hB7A, ectopic expression from pY3HS (scFv, V domains shown)
VH: EVQLLESGGGLVQPGGSLRLSCAASGFTFSFYRMSWVRQAPGKGLEWVSAISGSGGSTYYADSVKGRFTISRDNSKNTLYLQMNSLRAEDTAVYYCAKRVLTFDYWGQGTLVTVSS
VL: DIQMTQSPSSLSASVGDRVTITCRASQSIRKRLNWYQQKPGKAPKLLIYAASSLQSGVPSRFSGSGSGTDFTLTISSLQPEDFATYYCQQSYSTPPTFGQGTKVEIK
notes: source: S. cerevisiae PJ69-4A, ectopic expression from pY3HS
With B3, the binding result in assay [7] was “binds”.

B4: scFv hB7A with C-terminal c-myc-tag (scFv, V domains shown)
VH: EVQLLESGGGLVQPGGSLRLSCAASGFTFSFYRMSWVRQAPGKGLEWVSAISGSGGSTYYADSVKGRFTISRDNSKNTLYLQMNSLRAEDTAVYYCAKRVLTFDYWGQGTLVTVSS
VL: DIQMTQSPSSLSASVGDRVTITCRASQSIRKRLNWYQQKPGKAPKLLIYAASSLQSGVPSRFSGSGSGTDFTLTISSLQPEDFATYYCQQSYSTPPTFGQGTKVEIK
notes: source: E. coli BL21(DE3), periplasmic extract; purified (ammonium sulfate, Protein L column); not shown: c-myc-tag, C-terminal, kept
For the molecule B4, the binding result in assay [8] was “binds”.

B5: nYFP:scFv-hB7A (scFv, V domains shown)
VH: EVQLLESGGGLVQPGGSLRLSCAASGFTFSFYRMSWVRQAPGKGLEWVSAISGSGGSTYYADSVKGRFTISRDNSKNTLYLQMNSLRAEDTAVYYCAKRVLTFDYWGQGTLVTVSS
VL: DIQMTQSPSSLSASVGDRVTITCRASQSIRKRLNWYQQKPGKAPKLLIYAASSLQSGVPSRFSGSGSGTDFTLTISSLQPEDFATYYCQQSYSTPPTFGQGTKVEIK
notes: sub-cloned from pY3HS with BglII and EcoRI, so the StrepTag II of the cassette may be carried along (surmise); source: A. thaliana Col-0 mesophyll protoplasts, transfected; not shown: N-terminal fragment of YFP (nYFP), N-terminal, kept
As to B5, the binding result with cYFP:CKI1 RD is recorded as “no binding”; in the assay with AHP3:cYFP it was “binds”.
